Experimental data from publication PMC8274477 (Frontiers in Cell and Developmental Biology, 2021).

B1: C17orf82 (natural protein, human, UniProt Q86X59 1-251, looked up)
chain: MGRPLEGQPLRALDLYPEPAFLRSGKDPKSSPASSPSFAVLGPEVRSTGGQAGSRRRPSAPCSQDRAAAEGAPALLGGSPSSGSPGHPPGSAFGVEAGCRALNVSEHARGGFALGLPFGLSGGAYLFLLLDGAGDPKPTPEAPISSADGRAWFPSESSWQLPQLPAGSTSGSEPRARPGLGPRQLLTGPRDGAAGQGPGRGLTARLGREREIDCGPRQAGHGGTATDTGRAGSGARHRPPRDRGTPGLRTH
notes: C17orf82; protein on the human proteome microarray; source: spotted on the HuProt human proteome microarray
B2: C1orf74 (natural protein, human, UniProt Q96LT6 1-269, looked up)
chain: MLLLDLMSSPSPQLLVAAAQQTLGMGKRRSPPQAICLHLAGEVLAVARGLKPAVLYDCNCAGASELQSYLEELKGLGFLTFGLHILEIGENSLIVSPEHVCQHLEQVLLGTIAFVDVSSCQRHPSVCSLDQLQDLKALVAEIITHLQGLQRDLSLAVSYSRLHSSDWNLCTVFGILLGYPVPYTFHLNQGDDNCLALTPLRVFTARISWLLGQPPILLYSFSVPESLFPGLRDILNTWEKDLRTRFRTQNDFADLSISSEIVTLPAVAL
notes: C1orf74; protein on the human proteome microarray; source: spotted on the HuProt human proteome microarray
B3: C21orf59 (natural protein, human, UniProt P57076 1-290, looked up)
chain: MVLLHVKRGDESQFLLQAPGSTELEELTVQVARVYNGRLKVQRLCSEMEELAEHGIFLPPNMQGLTDDQIEELKLKDEWGEKCVPSGGAVFKKDDIGRRNGQAPNEKMKQVLKKTIEEAKAIISKKQVEAGVCVTMEMVKDALDQLRGAVMIVYPMGLPPYDPIRMEFENKEDLSGTQAGLNVIKEAEAQLWWAAKELRRTKKLSDYVGKNEKTKIIAKIQQRGQGAPAREPIISSEEQKQLMLYYHRRQEELKRLEENDDDAYLNSPWADNTALKRHFHGVKDIKWRPR
notes: C21orf59; protein on the human proteome microarray; source: spotted on the HuProt human proteome microarray

Target: T1, OTULIN (OTU deubiquitinase with linear linkage specificity, FAM105B), His-tagged, biotin-labelled (human, UniProt Q96BN8 1-352, biotin (label; sites not stated))
T1 construct: OTULIN (FAM105B), cDNA in pET28a; also called HIS-OTULIN; source: E. coli BL21 (DE3), purified (His-tag Purification Resin), labelled with biotin; not shown: His6, N-terminal, kept
Test: peptide or protein array; HuProt human proteome microarray; 5 ug/5 ml biotin-labelled LUBAC or OTULIN in solution, 1 h at room temperature; Cy5-streptavidin, scanned at 635 nm; BSA as negative control; hits: Z-score >= 3 and I_(Mean_Ratio) >= 1.4
Conditions: both partners purified

Row | Binder | binding result
1 | B1 | binds
2 | B2 | binds
3 | B3 | binds
